In US20190314526A1:

Experiments:
[1] = biological target: AAV-2 capsid mutant H372K (rAAV-2 virion) (AAV-2) (UniProt P03135); assay: all-human IgG ELISA, against wild type
[2] = biological target: AAV-2 capsid mutant D132N (rAAV-2 virion) (AAV-2) (UniProt P03135); assay: all-human IgG ELISA, against wild type
[3] = biological target: AAV-2 capsid mutant T413K (rAAV-2 virion) (AAV-2) (UniProt P03135); assay: all-human IgG ELISA, against wild type
[4] = biological target: AAV-2 capsid mutant E393D (rAAV-2 virion) (AAV-2) (UniProt P03135); assay: all-human IgG ELISA, against wild type
[5] = biological target: AAV-2 capsid mutant S130T (rAAV-2 virion) (AAV-2) (UniProt P03135); assay: all-human IgG ELISA, against wild type
[6] = biological target: AAV-2 capsid mutant N360H (rAAV-2 virion) (AAV-2) (UniProt P03135); assay: all-human IgG ELISA, against wild type
[7] = biological target: AAV-2 capsid mutant D357E (rAAV-2 virion) (AAV-2) (UniProt P03135); assay: all-human IgG ELISA, against wild type
[8] = biological target: AAV-2 capsid mutant R334A/G449A/N568A (rAAV-2 virion) (AAV-2) (UniProt P03135); assay: all-human IgG ELISA, against wild type
[9] = biological target: AAV-2 capsid mutant S130A (rAAV-2 virion) (AAV-2) (UniProt P03135); assay: all-human IgG ELISA, against wild type
[10] = biological target: AAV-2 capsid mutant R334A (rAAV-2 virion) (AAV-2) (UniProt P03135); assay: all-human IgG ELISA, against wild type
[11] = biological target: AAV-2 capsid mutant N568A (rAAV-2 virion) (AAV-2) (UniProt P03135); assay: all-human IgG ELISA, against wild type
[12] = biological target: AAV-2 capsid mutant N568A/V571A (rAAV-2 virion) (AAV-2) (UniProt P03135); assay: all-human IgG ELISA, against wild type
[13] = biological target: AAV-2 capsid mutant G449A/N568A (rAAV-2 virion) (AAV-2) (UniProt P03135); assay: all-human IgG ELISA, against wild type
[14] = biological target: AAV-2 capsid mutant N568K (rAAV-2 virion) (AAV-2) (UniProt P03135); assay: all-human IgG ELISA, against wild type
[15] = biological target: AAV-2 capsid mutant R334A/N568A (rAAV-2 virion) (AAV-2) (UniProt P03135); assay: all-human IgG ELISA, against wild type
[16] = biological target: AAV-2 capsid mutant E411A/T413A (rAAV-2 virion) (AAV-2) (UniProt P03135); assay: all-human IgG ELISA, against wild type
[17] = biological target: AAV-2 capsid mutant H372Q (rAAV-2 virion) (AAV-2) (UniProt P03135); assay: all-human IgG ELISA, against wild type
[18] = biological target: AAV-2 capsid mutant G246A (rAAV-2 virion) (AAV-2) (UniProt P03135); assay: all-human IgG ELISA, against wild type
[19] = biological target: AAV-2 capsid mutant G449A (rAAV-2 virion) (AAV-2) (UniProt P03135); assay: all-human IgG ELISA, against wild type
[20] = biological target: AAV-2 capsid mutant R334A/G449A (rAAV-2 virion) (AAV-2) (UniProt P03135); assay: all-human IgG ELISA, against wild type
[21] = biological target: AAV-2 capsid mutant E411A/T413A/G449A/N450A (rAAV-2 virion) (AAV-2) (UniProt P03135); assay: all-human IgG ELISA, against wild type
[22] = biological target: AAV-2 capsid mutant H134Q (rAAV-2 virion) (AAV-2) (UniProt P03135); assay: all-human IgG ELISA, against wild type
[23] = biological target: AAV-2 capsid mutant V571K (rAAV-2 virion) (AAV-2) (UniProt P03135); assay: all-human IgG ELISA, against wild type
[24] = biological target: AAV-2 capsid mutant T354A (rAAV-2 virion) (AAV-2) (UniProt P03135); assay: cell-based or functional assay
[25] = biological target: AAV-2 capsid mutant D132N (rAAV-2 virion) (AAV-2) (UniProt P03135); assay: cell-based or functional assay
[26] = biological target: AAV-2 capsid mutant E437A (rAAV-2 virion) (AAV-2) (UniProt P03135); assay: cell-based or functional assay
[27] = biological target: AAV-2 capsid mutant K390A (rAAV-2 virion) (AAV-2) (UniProt P03135); assay: cell-based or functional assay
[28] = biological target: AAV-2 capsid mutant D377A (rAAV-2 virion) (AAV-2) (UniProt P03135); assay: cell-based or functional assay
[29] = biological target: AAV-2 capsid mutant E394K (rAAV-2 virion) (AAV-2) (UniProt P03135); assay: cell-based or functional assay
[30] = biological target: AAV-2 capsid mutant E418A (rAAV-2 virion) (AAV-2) (UniProt P03135); assay: cell-based or functional assay
[31] = biological target: AAV-2 capsid mutant R448K (rAAV-2 virion) (AAV-2) (UniProt P03135); assay: cell-based or functional assay
[32] = biological target: AAV-2 capsid mutant D357N (rAAV-2 virion) (AAV-2) (UniProt P03135); assay: cell-based or functional assay
[33] = biological target: AAV-2 capsid mutant K407A (rAAV-2 virion) (AAV-2) (UniProt P03135); assay: cell-based or functional assay
[34] = biological target: AAV-2 capsid mutant E394A (rAAV-2 virion) (AAV-2) (UniProt P03135); assay: cell-based or functional assay
[35] = biological target: AAV-2 capsid mutant G375P (rAAV-2 virion) (AAV-2) (UniProt P03135); assay: cell-based or functional assay
[36] = biological target: AAV-2 capsid mutant N360H/S361A (rAAV-2 virion) (AAV-2) (UniProt P03135); assay: cell-based or functional assay
[37] = biological target: AAV-2 capsid mutant V571K (rAAV-2 virion) (AAV-2) (UniProt P03135); assay: A20/IgG sandwich ELISA: capture on coated Panglobulin, detection with A20-biotin; against wild type

purified human IgG from >10,000 donors (Panglobulin, ZLB Bioplasma AG)
Fold decrease in binding of human IgG [1]: 1 fold
Fold decrease in binding of human IgG [2]: 1 fold
Fold decrease in binding of human IgG [3]: 1 fold
Fold decrease in binding of human IgG [4]: 1 fold
Fold decrease in binding of human IgG [5]: 1 fold
Fold decrease in binding of human IgG [6]: 1 fold
Fold decrease in binding of human IgG [7]: 1 fold
Fold decrease in binding of human IgG [8]: 1 fold
Fold decrease in binding of human IgG [9]: 1 fold
Fold decrease in binding of human IgG [10]: 1 fold
Fold decrease in binding of human IgG [11]: 1 fold
Fold decrease in binding of human IgG [12]: 1 fold
Fold decrease in binding of human IgG [13]: 1 fold
Fold decrease in binding of human IgG [14]: 1 fold
Fold decrease in binding of human IgG [15]: 1 fold
Fold decrease in binding of human IgG [16]: 1 fold
Fold decrease in binding of human IgG [17]: 1 fold
Fold decrease in binding of human IgG [18]: 1 fold
Fold decrease in binding of human IgG [19]: 1 fold
Fold decrease in binding of human IgG [20]: 1 fold
Fold decrease in binding of human IgG [21]: 1 fold
Fold decrease in binding of human IgG [22]: 1 fold
Fold decrease in binding of human IgG [23]: 10 fold
Fold decrease in neutralizing titer [24]: 2.9 fold
Fold decrease in neutralizing titer [25]: 3.8 fold
Fold decrease in neutralizing titer [26]: 2 fold
Fold decrease in neutralizing titer [27]: 2.3 fold
Fold decrease in neutralizing titer [28]: 1.9 fold
Fold decrease in neutralizing titer [29]: 2.3 fold
Fold decrease in neutralizing titer [30]: 1.5 fold
Fold decrease in neutralizing titer [31]: 1 fold
Fold decrease in neutralizing titer [32]: 1.8 fold
Fold decrease in neutralizing titer [33]: 3.3 fold
Fold decrease in neutralizing titer [34]: 1.5 fold
Fold decrease in neutralizing titer [35]: 1.9 fold
Fold decrease in neutralizing titer [36]: 2.1 fold
fold reduction of binding [37]: 100 fold
